This is an account of results in patent publication US20260144882A1 (BIO THERA SOLUTIONS, published 2026).

Substitutions are numbered along the chain they refer to.

Sequences and labels used below:
T1: human Nectin-4 extracellular antigen hNectin-4-His (human, UniProt Q96NY8 32-349)
T1 construct: C-terminal 8xHis tag included
T1 sequence: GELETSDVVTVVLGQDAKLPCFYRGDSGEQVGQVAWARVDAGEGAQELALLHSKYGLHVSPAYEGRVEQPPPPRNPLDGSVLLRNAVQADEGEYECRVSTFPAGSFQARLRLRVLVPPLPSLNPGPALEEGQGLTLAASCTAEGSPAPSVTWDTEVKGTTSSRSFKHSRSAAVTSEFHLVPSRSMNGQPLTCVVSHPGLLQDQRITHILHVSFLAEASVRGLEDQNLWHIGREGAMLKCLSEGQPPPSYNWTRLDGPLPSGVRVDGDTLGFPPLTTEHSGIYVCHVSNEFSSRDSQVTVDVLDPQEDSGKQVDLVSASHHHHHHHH

B1: 1G8-2G7 scFv (scFv, V domains shown)
VH: EVQLVESGGGLVQPGGSLRLSCAASGGTFYTYAMSWVRQAPGKGLEWVSRIYSTKGTPDYADSVKGRFTISRDNSKNTLYLQMNSLRAEDTAVYYCARQTEDRSYGYDLDYWGQGTLVTVSS
VL: DIQMTQSPSSLSASVGDRVTITCRASQGISSYLAWYQQKPGKAPKLLIYAASSLQSGVPSRFSGSGSGTDFTLTISSLQPEDFATYYCQQHYTTPPTFGQGTKVEIKR
notes: phage clone supernatant
B2: 1G8-1F5 scFv (scFv, V domains shown)
VH: EVQLVESGGGLVQPGGSLRLSCAASGDIFDTYMSWVRQAPGKGLEWVSRIYTDGSSDYADSVKGRFTISRDNSKNTLYLQMNSLRAEDTAVYYCARQTEDRSYGYDLDYWGQGTLVTVSS
VL: B1 VL
notes: phage clone supernatant
B3: 1G8-2G12 scFv (scFv, V domains shown)
VH: EVQLVESGGGLVQPGGSLRLSCAASGFTFSNNAMSWVRQAPGKGLEWVSAIYASTDGRSYADSVKGRFTISRDNSKNTLYLQMNSLRAEDTAVYYCARQTEDRSYGYDLDYWGQGTLVTVSS
VL: B1 VL
notes: phage clone supernatant
B4: 1G8-2B12 scFv (scFv, V domains shown)
VH: EVQLVESGGGLVQPGGSLRLSCAASGDTFGTSSMSWVRQAPGKGLEWVSRIDTWGWYKFYADSVKGRFTISRDNSKNTLYLQMNSLRAEDTAVYYCARQTEDRSYGYDLDYWGQGTLVTVSS
VL: B1 VL
notes: phage clone supernatant
B5: 10F4-2A9 scFv (scFv, V domains shown)
VH: EVQLVESGGGLVQPGGSLRLSCAASGYTFTDYDMSWVRQAPGKGLEWVSGIKQYKGYTSYADSVKGRFTISRDNSKNTLYLQMNSLRAEDTAVYYCAREYSDVVDYVSVRTPLDYWGQGTLVTVSS
VL: B1 VL
notes: phage clone supernatant
B6: 1G8-2G9 scFv (scFv, V domains shown)
VH: B1 VH with G27Y, T28I, Y30T, T31N, Y52S, S53Q, T54S, K55G, P58N
VL: B1 VL
notes: phage clone supernatant
B7: 10F4-1 scFv (scFv, V domains shown)
VH: B5 VH with Y27D, T28S, D31N, D33W, K52S, Y54G, K55G, G56S, T58A, S59Y
VL: B1 VL
notes: phage clone supernatant
B8: 10F4-1C3 scFv (scFv, V domains shown)
VH: B5 VH with T28S, T30S, D33W, G50S, Y54T, K55G, Y57V, T58K, S59H
VL: B1 VL
notes: phage clone supernatant
B9: 10F4-1B2 scFv (scFv, V domains shown)
VH: EVQLVESGGGLVQPGGSLRLSCAASGFSFGNYWMSWVRQAPGKGLEWVSGIDGHSSYAFYADSVKGRFTISRDNSKNTLYLQMNSLRAEDTAVYYCAREYSDVVDYVSVRTPLDYWGQGTLVTVSS
VL: B1 VL
notes: phage clone supernatant
B10: 10F4-1C10 scFv (scFv, V domains shown)
VH: B5 VH with T28N, T30G, D31S, Q53T, K55G, Y57N, S59H
VL: B1 VL
notes: phage clone supernatant
B11: 1G8-2H4 scFv (scFv, V domains shown)
VH: EVQLVESGGGLVQPGGSLRLSCAASGDSFTGYAMSWVRQAPGKGLEWVSAISGSGGSTYYADSVKGRFTISRDNSKNTLYLQMNSLRAEDTAVYYCARQTEDRSYGYDLDYWGQGTLVTVSS
VL: B1 VL
notes: phage clone supernatant
B12: 10F4-1D3 scFv (scFv, V domains shown)
VH: B9 VH with G30Y, N31D, W33D, G50S, D52I, G53Q, H54S, S55G, Y57T
VL: B1 VL
notes: phage clone supernatant
B13: 1G8-2H10 scFv (scFv, V domains shown)
VH: EVQLVESGGGLVQPGGSLRLSCAASGYNFTNSAMSWVRQAPGKGLEWVSSIYYHSGVPRYADSVKGRFTISRDNSKNTLYLQMNSLRAEDTAVYYCARQTEDRSYGYDLDYWGQGTLVTVSS
VL: B1 VL
notes: phage clone supernatant
B14: 10F4-1E10 scFv (scFv, V domains shown)
VH: B5 VH with Y27D, T30D, D31T, D33A, K52S, Y54W, K55G, G56A, T58A
VL: B1 VL
notes: phage clone supernatant
B15: 10F4-1B5 scFv (scFv, V domains shown)
VH: B9 VH with S28N, G30T, N31D, G50S, D52I, H54D, S55D, Y57T, A58N, F59H
VL: B1 VL
notes: phage clone supernatant
B16: 10F4-1G7 scFv (scFv, V domains shown)
VH: B9 VH with F27Y, S28N, N31D, W33D, G50S, D52I, S55G, S56D, Y57T, A58K
VL: B1 VL
notes: phage clone supernatant
B17: 10F4-1F9 scFv (scFv, V domains shown)
VH: B5 VH with Y27F, T28S, T30G, D31G, Y32F, Q53T, K55G, T58R
VL: B1 VL
notes: phage clone supernatant
B18: 10F4-1G8 scFv (scFv, V domains shown)
VH: EVQLVESGGGLVQPGGSLRLSCAASGFNFSDFDMSWVRQAPGKGLEWVSVIKPSGDYINYADSVKGRFTISRDNSKNTLYLQMNSLRAEDTAVYYCAREYSDVVDYVSVRTPLDYWGQGTLVTVSS
VL: B1 VL
notes: phage clone supernatant
B19: 1G8-2G8 scFv (scFv, V domains shown)
VH: B11 VH with D27F, S28N, G31N, A50R, G53T, S54Y, G56D, S57T, Y59H
VL: B1 VL
notes: phage clone supernatant
B20: 10F4-1A1 scFv (scFv, V domains shown)
VH: B9 VH with G30D, W33D, G50S, D52K, G53P, H54G, S56A, A58K
VL: B1 VL
notes: phage clone supernatant
B21: 10F4-1F2 scFv (scFv, V domains shown)
VH: EVQLVESGGGLVQPGGSLRLSCAASGYNFTNYYMSWVRQAPGKGLEWVSSISAYSDNRNYADSVKGRFTISRDNSKNTLYLQMNSLRAEDTAVYYCAREYSDVVDYVSVRTPLDYWGQGTLVTVSS
VL: B1 VL
notes: phage clone supernatant
B22: 1G8-2H11 scFv (scFv, V domains shown)
VH: B3 VH with T28N, S30D, N32Y, A50R, A53G, S54W, T55D, D56W, G57Y, R58A
VL: B1 VL
notes: phage clone supernatant
B23: 10F4-1F8 scFv (scFv, V domains shown)
VH: B5 VH with G50S, K52I, Q53T, Y54D, K55G, Y57G, T58A, S59F
VL: B1 VL
notes: phage clone supernatant
B24: 1G8-2H1 scFv (scFv, V domains shown)
VH: B11 VH with D27Y, T30Y, G31S, A50R, G53Q, S54G, S57V, Y59H
VL: B1 VL
notes: phage clone supernatant
B25: 10F4-1E12 scFv (scFv, V domains shown)
VH: B18 VH with F27Y, D31S, F32Y, V50G, K52S, P53D, S54T, I58A
VL: B1 VL
notes: phage clone supernatant
B26: 10F4-1A3 scFv (scFv, V domains shown)
VH: B5 VH with T28S, T30S, D31N, Q53G, Y54W, G56S, S59G
VL: B1 VL
notes: phage clone supernatant
B27: 10F4-1B7 scFv (scFv, V domains shown)
VH: B18 VH with D31G, V50G, P53A, S54Y, G55K, D56S, Y57T, I58A, N59D
VL: B1 VL
notes: phage clone supernatant
B28: 10F4-1G5 scFv (scFv, V domains shown)
VH: B21 VH with N28T, T30D, N31S, Y32S, Y33W, S52D, S55G, N57Y, R58N, N59F
VL: B1 VL
notes: phage clone supernatant
B29: 1G8-2H3 scFv (scFv, V domains shown)
VH: B11 VH with D27Y, T30G, A50R, S54I, G55K, G56A, S57Y, T58N, Y59D
VL: B1 VL
notes: phage clone supernatant
B30: 10F4-1D11 scFv (scFv, V domains shown)
VH: B18 VH with N28I, V50G, P53Q, G55S, D56A, Y57G
VL: B1 VL
notes: phage clone supernatant
B31: 1G8-2H9 scFv (scFv, V domains shown)
VH: B3 VH with T28N, S30G, N32Y, A53S, S54Y, T55F, G57E, R58P, S59R
VL: B1 VL
notes: phage clone supernatant
B32: 1G8-2H8 scFv (scFv, V domains shown)
VH: B11 VH with S28I, T30G, G31S
VL: B1 VL
notes: phage clone supernatant
B33: 10F4-1C4 scFv (scFv, V domains shown)
VH: B9 VH with S28N, G30T, N31D, G50S, D52I, H54D, S55D, Y57T, A58N, F59H
VL: B1 VL
notes: phage clone supernatant

The assay deals with T1, human Nectin-4 extracellular antigen …. Description: ELISA, phage scFv supernatant 1:50.
In turn, B1 gave an OD value of 1.49 OD. The figure for B2 is 1.56 OD. The figure for B3 is 1.5 OD; for B4 it is 1.39 OD. B5 gave an OD value of 1.57 OD. The molecule B6 had an OD value of 1.54 OD. On to B7, for which the OD value came to 1.39 OD. The figure for B8 is 1.59 OD; for B9 it is 1.64 OD; for B10 it is 1.52 OD. The figure for B11 is 1.58 OD; for B12 it is 1.52 OD; for B13 it is 1.53 OD. The figure for B14 is 1.29 OD; for B15 it is 1.53 OD; for B16 it is 1.54 OD. On to B17, for which the OD value turned out to be 1.48 OD. B18 registered an OD value of 1.52 OD. B19 registered an OD value of 1.58 OD. B20: the OD value was determined as 1.69 OD.

B21 came in with an OD value of 1.4 OD. The figure for B22 is 1.35 OD. The figure for B23 is 1.49 OD; for B24 it is 1.58 OD. The figure for B25 is 1.52 OD. For the molecule B26, the OD value amounted to 1.53 OD. For B27, the OD value stood at 1.6 OD.

For B28, the OD value amounted to 1.41 OD. The figure for B29 is 1.53 OD; for B30 it is 1.46 OD. B31: the OD value came to 1.46 OD. In the case of B32, the OD value was 1.57 OD. The figure for B33 is 1.46 OD.
